From patent publication US20060252053A1 (Dana-Farber, published 2006)

B1: endogenous Bcl2L12 polypeptide of human cell lines (LNZ308, LN443, LN382, U87MG, 293T) (other)
chain: MGRPAGLFPPLCPFLGFRPEACWERHMQIERAPSVPPFLRWAGYRPGPVRRRGKVELIKFVRVQWRRPQVEWRRRRWGPGPGASMAGSEELGLREDTLRVLAAFLRRGEAAGSPVPTPPRSPAQEEPTDFLSRLRRCLPCSLGRGAAPSESPRPCSLPIRPCYGLEPGPATPDFYALVAQRLEQLVQEQLKSPPSPELQGPPSTEKEAILRRLVALLEEEAEVINQKLASDPALRSKLVRLSSDSFARLVELFCSRDDSSRPSRACPGPPPPSPEPLARLALAMELSRRVAGLGGTLAGLSVEHVHSFTPWIQAHGGWEGILAVSPVDLNLPLD
notes: Endogenous protein in lysates or fixed cells of human cell lines

Legend:
[1] = molecular target: endogenous Apaf-1 polypeptide of 293T cells (human) (UniProt O14727); experiment: cell-based or functional assay
[2] = molecular target: T1, endogenous procaspase-3 (LNZ308, U87MG and 293T cells) (human, UniProt P42574 1-277); experiment: anti-L12-2 immunoprecipitation from LNZ308, U87MG and 293T lysates, western blot
T1 sequence (looked up): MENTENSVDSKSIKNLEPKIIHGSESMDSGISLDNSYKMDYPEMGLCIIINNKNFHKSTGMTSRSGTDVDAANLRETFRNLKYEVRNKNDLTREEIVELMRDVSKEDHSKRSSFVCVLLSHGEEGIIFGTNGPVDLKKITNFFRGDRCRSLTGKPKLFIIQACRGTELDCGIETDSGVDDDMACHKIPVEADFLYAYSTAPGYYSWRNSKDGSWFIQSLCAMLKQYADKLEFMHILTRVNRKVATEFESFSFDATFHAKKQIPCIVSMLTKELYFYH
Protocol: (§1) To define further the molecular actions of Bcl2L12 polypeptides, the physical interactions with key post-mitochondrial apoptosis signaling molecules were assessed. Anti-L12-2 immunoprecipitates from lysates of LNZ308, U87MG, and 293T cells were subjected to western blot analysis for procaspases 7 and 3 and cytochrome c. Briefly, cells were lysed in IP buffer. Cleared supernatants were incubated with prebleed serum (8 μl) coupled to Protein A-sepharose 4B beads (Sigma) for 1 hour and subsequently with anti-L12-2 antiserum (8 μl) for 1 to 2 hours. […] The blots were washed with PBS/Tween and developed with goat anti-rabbit IgG (1:10,000) or with goat anti-mouse antibodies (1:10,000) (Pierce) in 5% milk PBS/Tween. After washing with PBS/Tween, the blots were developed with the Lumigen PS3 kit (Amersham) following the manufacturer's protocol. 1/40 of the lysate used for the immunoprecipitation was loaded to quantify the amount of co-immunoprecipitated caspase-7. […] Anti-L12-2 immunoprecipitates from control- and siRNA#5-treated U87MG cells were also subjected to western blot analysis for caspase-7.

[3] = molecular target: T2, cytochrome c (endogenous, LNZ308, U87MG and 293T cells) (human, UniProt P99999 2-105); experiment: as above
T2 construct: also called apoptosome component cytochrome c
Protocol: as §1

T2 sequence (P99999 2-105 limits assumed): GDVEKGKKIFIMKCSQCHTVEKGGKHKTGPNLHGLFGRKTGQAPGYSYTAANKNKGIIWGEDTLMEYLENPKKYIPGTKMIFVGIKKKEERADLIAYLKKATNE
Chain of endogenous Apaf-1 polypeptide of 293T cells (human) (O14727 whole entry): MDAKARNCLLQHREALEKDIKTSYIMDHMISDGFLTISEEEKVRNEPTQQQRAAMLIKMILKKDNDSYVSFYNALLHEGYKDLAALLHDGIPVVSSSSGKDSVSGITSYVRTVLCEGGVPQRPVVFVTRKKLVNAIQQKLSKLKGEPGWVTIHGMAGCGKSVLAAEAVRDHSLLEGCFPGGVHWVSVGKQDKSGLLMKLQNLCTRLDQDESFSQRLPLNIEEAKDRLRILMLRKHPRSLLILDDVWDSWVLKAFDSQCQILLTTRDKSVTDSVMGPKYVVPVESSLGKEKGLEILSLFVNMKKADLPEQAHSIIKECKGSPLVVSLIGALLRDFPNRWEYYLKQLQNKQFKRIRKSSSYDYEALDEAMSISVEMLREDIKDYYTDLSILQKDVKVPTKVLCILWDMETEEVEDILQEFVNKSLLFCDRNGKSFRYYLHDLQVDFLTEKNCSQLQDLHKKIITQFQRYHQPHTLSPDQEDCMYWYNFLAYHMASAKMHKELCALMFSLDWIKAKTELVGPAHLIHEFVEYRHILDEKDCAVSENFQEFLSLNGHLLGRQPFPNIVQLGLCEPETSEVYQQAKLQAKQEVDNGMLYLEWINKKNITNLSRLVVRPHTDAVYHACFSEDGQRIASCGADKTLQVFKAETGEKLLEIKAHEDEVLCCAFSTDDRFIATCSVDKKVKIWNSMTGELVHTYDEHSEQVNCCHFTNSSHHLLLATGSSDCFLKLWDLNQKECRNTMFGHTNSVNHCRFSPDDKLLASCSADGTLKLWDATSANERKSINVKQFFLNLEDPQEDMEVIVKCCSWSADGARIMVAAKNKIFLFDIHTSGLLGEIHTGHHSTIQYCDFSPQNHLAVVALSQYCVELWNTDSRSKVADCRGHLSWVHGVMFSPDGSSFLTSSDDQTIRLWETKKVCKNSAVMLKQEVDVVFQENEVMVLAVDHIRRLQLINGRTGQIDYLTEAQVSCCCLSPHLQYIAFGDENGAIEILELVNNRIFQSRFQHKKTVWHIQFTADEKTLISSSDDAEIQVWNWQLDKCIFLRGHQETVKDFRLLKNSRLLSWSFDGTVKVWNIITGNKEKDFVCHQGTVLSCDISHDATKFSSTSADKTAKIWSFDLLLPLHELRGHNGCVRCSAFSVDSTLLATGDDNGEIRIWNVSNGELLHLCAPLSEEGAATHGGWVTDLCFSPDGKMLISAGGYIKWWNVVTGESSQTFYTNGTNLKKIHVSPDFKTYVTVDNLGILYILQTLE

Row | caspase-9 activity in 293T cells (vector only: about 420 RFUs) [1] [RFUs] | binding result [2] | binding result [3] | Molecule
1 | 160 | – | – | Bcl2L12-ΔBH2ΔP-rΔIHD polypeptide, V5 tagged (human amino acid sequence 1-167)
2 | – | no binding | no binding | B1
